Publication PMC7925178

Columns and labels:
[1] = biological target: AMC009 SOSIP.v4.2-D7324 trimer (HIV-1 (subtype B)); assay: negative-stain electron microscopy; NS-EM, reference-free 2D class averages of purified SOSIP trimers; percent native-like trimers
[2] = biological target: AMC009 SOSIP.v5.2 trimer (HIV-1 (subtype B)); assay: native gel or EMSA
[3] = biological target: AMC009 SOSIP.v5.2 trimer (HIV-1 (subtype B)); assay: negative-stain electron microscopy; NS-EM, reference-free 2D class averages of purified SOSIP trimers; percent native-like trimers
[4] = biological target: AMC011 SOSIP.v4.2 trimer (HIV-1 (subtype B)); assay: native gel or EMSA
[5] = biological target: AMC011 SOSIP.v5.2 trimer (HIV-1 (subtype B)); assay: native gel or EMSA
[6] = biological target: AMC011 SOSIP.v5.2 trimer (HIV-1 (subtype B)); assay: negative-stain electron microscopy; NS-EM, reference-free 2D class averages of purified SOSIP trimers; percent native-like trimers

“AMC009 SOSIP.v4.2-D7324 trimer (complex)” was tested, and the % native-like trimers [1] was 100%.
With AMC009 SOSIP.v5.2 trimer (complex) the stoichiometry N [2] was 3 and the % native-like trimers [3] was 100%.
AMC011 SOSIP.v4.2 trimer (complex) showed a stoichiometry N [4] of 3.
AMC011 SOSIP.v5.2 trimer (complex) showed a stoichiometry N [5] of 3 and a % native-like trimers [6] of 100%.
